Here are results for two molecules from US20260275312, “CRISPR NUCLEASE POLYPEPTIDES AND GENE EDITING SYSTEMS COMPRISING SUCH” (ARBOR BIOTECHNOLOGIES, INC., published 2026).

One series addresses T1, Nuclease S (synthetic construct).
T1 chain: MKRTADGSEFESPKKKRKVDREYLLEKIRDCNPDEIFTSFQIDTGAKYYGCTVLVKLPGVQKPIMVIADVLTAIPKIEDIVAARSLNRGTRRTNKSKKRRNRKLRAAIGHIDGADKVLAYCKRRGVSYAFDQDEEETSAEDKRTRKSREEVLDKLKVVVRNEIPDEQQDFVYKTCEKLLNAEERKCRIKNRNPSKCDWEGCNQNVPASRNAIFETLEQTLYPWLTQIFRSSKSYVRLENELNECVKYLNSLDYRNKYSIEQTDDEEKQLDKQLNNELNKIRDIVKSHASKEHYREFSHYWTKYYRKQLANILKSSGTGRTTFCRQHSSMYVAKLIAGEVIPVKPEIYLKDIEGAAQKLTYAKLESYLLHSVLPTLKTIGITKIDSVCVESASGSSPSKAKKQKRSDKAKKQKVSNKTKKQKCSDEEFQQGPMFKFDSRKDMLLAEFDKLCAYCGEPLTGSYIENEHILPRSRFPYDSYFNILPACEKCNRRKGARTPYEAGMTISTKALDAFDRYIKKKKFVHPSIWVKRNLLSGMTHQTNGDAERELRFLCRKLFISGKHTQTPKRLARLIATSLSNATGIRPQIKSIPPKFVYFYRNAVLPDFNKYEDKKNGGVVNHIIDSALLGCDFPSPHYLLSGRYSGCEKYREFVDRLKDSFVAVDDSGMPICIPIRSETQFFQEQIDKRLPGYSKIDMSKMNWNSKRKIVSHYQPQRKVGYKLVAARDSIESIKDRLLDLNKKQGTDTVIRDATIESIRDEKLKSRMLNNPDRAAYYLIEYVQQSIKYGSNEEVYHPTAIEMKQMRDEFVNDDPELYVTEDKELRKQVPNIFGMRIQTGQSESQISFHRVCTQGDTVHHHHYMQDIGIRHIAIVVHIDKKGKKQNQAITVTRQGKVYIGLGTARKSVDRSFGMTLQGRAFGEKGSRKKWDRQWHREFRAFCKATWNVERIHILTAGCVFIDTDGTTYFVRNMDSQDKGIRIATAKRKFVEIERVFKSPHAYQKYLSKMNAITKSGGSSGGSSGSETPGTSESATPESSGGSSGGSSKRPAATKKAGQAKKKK
The series can be described thus: cell_activity; HEK293T; PAM AACC 3'; very low. The settings on record: tags: N-term SV40 NLS, XTEN linker + C-term nucleoplasmin NLS.

The next series deals with T2, Nuclease H L323R (synthetic construct, L323R).
T2 chain: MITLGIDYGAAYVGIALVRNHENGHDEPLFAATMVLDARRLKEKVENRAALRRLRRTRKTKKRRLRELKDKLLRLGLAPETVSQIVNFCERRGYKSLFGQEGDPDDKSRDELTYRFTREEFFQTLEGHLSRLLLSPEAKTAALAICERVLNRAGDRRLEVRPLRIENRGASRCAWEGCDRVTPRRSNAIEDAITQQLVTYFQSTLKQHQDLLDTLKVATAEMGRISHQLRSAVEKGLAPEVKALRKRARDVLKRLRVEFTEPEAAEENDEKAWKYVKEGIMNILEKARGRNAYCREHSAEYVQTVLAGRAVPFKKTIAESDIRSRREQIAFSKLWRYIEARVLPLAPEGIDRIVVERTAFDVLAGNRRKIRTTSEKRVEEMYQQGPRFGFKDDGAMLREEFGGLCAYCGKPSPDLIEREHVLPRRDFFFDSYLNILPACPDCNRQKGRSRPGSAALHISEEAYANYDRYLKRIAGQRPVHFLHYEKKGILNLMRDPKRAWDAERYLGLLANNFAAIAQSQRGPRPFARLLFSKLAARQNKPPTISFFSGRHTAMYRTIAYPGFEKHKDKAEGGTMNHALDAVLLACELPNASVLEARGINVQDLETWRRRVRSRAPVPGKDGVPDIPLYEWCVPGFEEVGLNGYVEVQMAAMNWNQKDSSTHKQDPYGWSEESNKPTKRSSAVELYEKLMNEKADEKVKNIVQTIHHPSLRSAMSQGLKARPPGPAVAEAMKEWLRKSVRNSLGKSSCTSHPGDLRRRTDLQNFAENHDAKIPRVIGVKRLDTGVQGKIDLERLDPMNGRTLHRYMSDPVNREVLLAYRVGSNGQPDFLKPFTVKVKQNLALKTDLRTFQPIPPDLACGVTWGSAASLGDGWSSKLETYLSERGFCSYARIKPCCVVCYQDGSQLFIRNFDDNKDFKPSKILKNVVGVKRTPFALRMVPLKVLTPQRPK
The series can be described thus: cell_activity; HEK293T; PAM AAC. The settings on record: tags: N-term SV40 NLS, XTEN linker + C-term nucleoplasmin NLS. As for the experimental part:
HEK293T cells were transfected with plasmids expressing the Nuclease H polypeptides and the gRNAs provided herein following the methods provided in Example 1 above. Gene editing efficiencies were determined by NGS following the methods also provided in Example 1. The NGS results were analyzed also following the methods provided in Example 1 above.
Indel ratios, referring to the percentage of NGS reads comprising indels, were calculated for the reference and for each variant. The indel ratios used for fold change calculations were the average of two technical replicates. To then calculate fold change in indel ratios, the indel ratio for each variant was divided by the indel ratio for the reference. […] Numbering is relative to the reference nuclease of SEQ ID NO: 64 (i.e., without an NLS).

B1: S AAVS1-T7 RNA guide ; AAVS1-T7 target (S) (ssRNA ; dsDNA)
RNA: GGCUAUAAUCCAUGCUGACCGUUGUAUUCGGAUGGGAGUAAAAGGUUGAGUACACCUGGAAACAAAACGACAUAAAGGUGUUCUCCCAUCUGUGUACAAAGAGCAGAUAUAUGAGUUGAUAAGUAAUAUGUUGCACGUAUGGACUUUGACAGUCUGUACCUCUGCGUGAAAGACAUAUUGCGUUAUUCAUAUAUCUGUGAGUCUGUUCUAAAUUUAAAGGUUUAGGGAA
DNA 1: GGCTATAATCCATGCTGACC
DNA 2: GGTCAGCATGGATTATAGCC
Consider B1, for which the activity in the series with Nuclease S came out at 0.0048 indel ratio.

B2: H AAVS1-T5 RNA guide ; AAVS1-T5 target (H) (ssRNA ; dsDNA)
RNA: GGCUAUAAUCCAUGCUGACCGUUUCAAUCAACCUGAUCUCUCUGCUUGCGCUGCAGGCUUCAUAAGAUCAGUAGGUUGAAAAGAGCAUCCGUCCGACAUGCACUCCGGGAUGGGGCAGUCCCGGCUCUUGCGGUUCCCGAUGCAGUUAUGUGUCCGCGGAACACGGUGUCGGACACGUCGCAAGACAGGAUGUGAGCCCAUUAUCCACAUUAGGAUCAAUGUACGCAUGAGCAGUCCGCAAUGCCGGGGACGCU
DNA 1: GGCTATAATCCATGCTGACC
DNA 2: GGTCAGCATGGATTATAGCC
Take B2: in the series with Nuclease H L323R, the “fold change in indel ratio vs reference” value is 5.91 fold indel vs reference.
